Test results as given in patent US20060191037, “Plant transcription factor that is involved in sugar signalling” (published 2006).

Columns and labels:
Details in all cases: tags: N-terminal His-tag (pET-15b, E. coli BL21(DE3))
[1] = biological target: T1, SUSIBA2 (WRKY transcription factor; purified fraction with 70 and 68 kDa forms) (Hordeum vulgare, UniProt Q6VWJ6 Q6VWJ6:1-573); experiment: EMSA; strong binding
Text: (§1) The 822-bp long SphI/HaeII fragment, encompassing SP8a and flanking sequences, as well as the 437-bp long BspHI/HaeII fragment, containing SP8a and downstream flanking sequence, formed prominent DNA-protein complexes with the purified SUSIBA2 fraction. Much to our surprise, however, the 510-bp long SphI/BsaI fragment, containing SP8a and upstream flanking sequence, bound only very poorly to SUSIBA2. We concluded that, in fact, the target for SUSIBA2 in the iso1 promoter is not SP8a but one or more sites downstream of the SP8a element. […] To follow up on this observation, we carried out EMSAs with oligonucleotides consisting of the iso1 SURE sequence.
(§2) EMSAs were carried out essentially as described by Sun et al. (1999). The competitor probes were prepared by annealing different non-labeled oligonucleotides in 14 mM Tris-HCl (pH 8.0), 7 mM MgCl₂.

[2] = biological target: T1, SUSIBA2 (WRKY transcription factor; …); experiment: EMSA; two complexes, attributed to 70 and 68 kDa forms
[3] = biological target: T1, SUSIBA2 (WRKY transcription factor; …); experiment: EMSA; binding negligible
Text: as §1, §2

T1 sequence (Q6VWJ6 whole entry, the tested form may be a part, one chain of several): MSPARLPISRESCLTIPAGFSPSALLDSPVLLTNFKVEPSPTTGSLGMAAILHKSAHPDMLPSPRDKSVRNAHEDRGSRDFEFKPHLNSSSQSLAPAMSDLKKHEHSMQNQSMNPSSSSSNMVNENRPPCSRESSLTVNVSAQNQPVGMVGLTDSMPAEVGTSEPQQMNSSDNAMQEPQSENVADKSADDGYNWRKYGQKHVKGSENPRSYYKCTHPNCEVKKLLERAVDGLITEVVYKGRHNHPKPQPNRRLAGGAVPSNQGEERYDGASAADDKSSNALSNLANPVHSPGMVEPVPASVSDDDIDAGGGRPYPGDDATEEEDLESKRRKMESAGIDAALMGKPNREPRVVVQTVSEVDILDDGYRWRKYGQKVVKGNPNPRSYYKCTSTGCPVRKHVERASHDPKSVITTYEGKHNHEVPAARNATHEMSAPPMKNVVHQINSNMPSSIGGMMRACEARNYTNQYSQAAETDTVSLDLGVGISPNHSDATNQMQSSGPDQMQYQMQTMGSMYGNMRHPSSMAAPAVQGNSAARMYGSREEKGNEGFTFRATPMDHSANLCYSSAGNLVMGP

B1: iso1 SURE (SURE-b) oligonucleotide (dsDNA)
DNA 1: GGAAAACCGAAATACCAAAAAATAATAATAAAATAATAAT
DNA 2: ATTATTATTTTATTATTATTTTTTGGTATTTCGGTTTTCC
[1]
  binding result: binds

B2: iso1 W box oligonucleotide (dsDNA)
DNA 1: TCGCTAACCAGTGACTTCCACGTTTCATCATTTATT
DNA 2: AATAAATGATGAAACGTGGAAGTCACTGGTTAGCGA
[2]
  binding result: binds

B3: iso1 SP8a oligonucleotide (dsDNA)
DNA 1: CCCTCGTGGAAGCAAAACTGTGTTTCTCGC
DNA 2: GCGAGAAACACAGTTTTGCTTCCACGAGGG
[3]
  binding result: no binding
